In patent US20250163127A1 one finds MFI, parental ratio and MFI ratio to WT (ΔWT) data, which are given here for 18 molecules.

Positions count from the first letter of the chain named. In names and notes the source's numbering stands.

B1: variant CD80 V4M/L70Q/A91G/I118V/T120S/T130A/K169E (Fc fusion)
chain: VIHMTKEVKEVATLSCGHNVSVEELAQTRIYWQKEKKMVLTMMSGDMNIWPEYKNRTIFDITNNLSIVIQALRPSDEGTYECVVLKYEKDGFKREHLAEVTLSVKADFPTPSISDFEVPSSNIRRIICSASGGFPEPHLSWLENGEELNAINTTVSQDPETELYAVSSELDFNMTTNHSFMCLIKYGHLRVNQTFNWNTTKQEHFPDN
B2: variant CD80 L70Q/A91G/I118V/T120S/T130A/K169E (Fc fusion)
chain: B1 chain with M4V
B3: ICOSL-Fc N52S/N57Y/Q100V (Fc fusion)
chain: DTQEKEVRAMVGSDVELSCACPEGSRFDLNDVYVYWQTSESKTVVTYHIPQSSSLEYVDSRYRNRALMSPAGMLRGDFSLRLFNVTPQDEQKFHCLVLSVSLGFQEVLSVEVTLHVAANFSVPVVSAPHSPSQDELTFTCTSINGYPRPNVYWINKTDNSLLDQALQNDTVFLNMRGLYDVVSVLRIARTPSVNIGCCIENVLLQQNLTVGSQTGNDIGERDKITENPVSTGEKNAAT
B4: ICOSL-Fc N52R/N57W/Q100K (Fc fusion)
chain: B3 chain with S52R, Y57W, V100K
B5: ICOSL-Fc N52V/N57T/Q100L (Fc fusion)
chain: B3 chain with S52V, Y57T, V100L
B6: ICOSL-Fc N52T/N57H/Q100S (Fc fusion)
chain: B3 chain with S52T, Y57H, V100S
B7: ICOSL-Fc N52R/N57F/Q100T (Fc fusion)
chain: B3 chain with S52R, Y57F, V100T
B8: ICOSL-Fc N52C/N57E/Q100S (Fc fusion)
chain: B3 chain with S52C, Y57E, V100S
B9: ICOSL-Fc N52R/N57Y/Q100R (Fc fusion)
chain: B3 chain with S52R, V100R
B10: ICOSL-Fc N57Q/Q100P (Fc fusion)
chain: B3 chain with S52N, Y57Q, V100P
B11: ICOSL-Fc N52P/N57S/Q100G (Fc fusion)
chain: B3 chain with S52P, Y57S, V100G
B12: ICOSL-Fc N52L/N57V (Fc fusion)
chain: B3 chain with S52L, Y57V, V100Q
B13: ICOSL-Fc N52T/N57H/Q100A (Fc fusion)
chain: B3 chain with S52T, Y57H, V100A
B14: ICOSL-Fc N52G/N57V (Fc fusion)
chain: B3 chain with S52G, Y57V, V100Q
B15: ICOSL-Fc N52L/N57H/Q100R (Fc fusion)
chain: B3 chain with S52L, Y57H, V100R
B16: ICOSL-Fc N52K/N57Y/Q100R (Fc fusion)
chain: B3 chain with S52K, V100R
B17: ICOSL-Fc N52R/N57L/Q100S (Fc fusion)
chain: B3 chain with S52R, Y57L, V100S
B18: ICOSL-Fc N52G/N57V/Q100G (Fc fusion)
chain: B3 chain with S52G, Y57V, V100G

Chain of PD-L1 (human) (chain, as listed by the source): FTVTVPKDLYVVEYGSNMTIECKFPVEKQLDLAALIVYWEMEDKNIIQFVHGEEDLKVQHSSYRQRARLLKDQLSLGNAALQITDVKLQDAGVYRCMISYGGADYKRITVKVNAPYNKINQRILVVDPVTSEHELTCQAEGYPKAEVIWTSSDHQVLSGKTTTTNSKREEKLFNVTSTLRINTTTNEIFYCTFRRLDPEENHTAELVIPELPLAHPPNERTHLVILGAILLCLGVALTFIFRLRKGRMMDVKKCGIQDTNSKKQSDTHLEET
Chain of ICOS (Homo sapiens (Human)) (Q9Y6W8 21-199 limits assumed): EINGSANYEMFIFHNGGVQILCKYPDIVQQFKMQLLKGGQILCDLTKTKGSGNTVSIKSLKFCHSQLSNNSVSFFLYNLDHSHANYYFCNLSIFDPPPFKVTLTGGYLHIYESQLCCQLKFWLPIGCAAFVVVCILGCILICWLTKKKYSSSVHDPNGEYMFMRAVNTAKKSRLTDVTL
Chain of CTLA-4 (human) (chain, as listed by the source): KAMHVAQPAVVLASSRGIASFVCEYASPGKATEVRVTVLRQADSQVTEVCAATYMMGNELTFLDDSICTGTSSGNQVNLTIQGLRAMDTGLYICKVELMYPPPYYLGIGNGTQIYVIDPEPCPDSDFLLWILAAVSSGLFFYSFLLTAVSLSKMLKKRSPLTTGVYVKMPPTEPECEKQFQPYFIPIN

The first assay concerns the target CTLA-4 (human). Put plainly: flow cytometry, cells expressing CTLA-4. Background: Flow cytometry measures light scatter and fluorescence of single cells or particles in a stream.
B1: the MFI was found to be 263 MFI and the parental ratio came out at 1.26.

Another assay concerns the target CD28 (human) (UniProt P10747). The assay is described as follows: flow cytometry, cells expressing CD28.
Take B1: the MFI amounted to 89 MFI and the parental ratio was 0.94.

The next assay concerns the target PD-L1 (human). The assay is described as follows: flow cytometry, cells expressing PD-L1.
As for B1, the MFI was 6 MFI and the parental ratio is 0.09.

In turn, B2 displayed an MFI of 6 MFI.

The target in a further assay is CD28 (human) (UniProt P10747). The assay is described as follows: flow cytometry, transfected cells.
On to B3, for which the MFI stood at 126000 MFI and the MFI ratio to WT (ΔWT) was 5.7 fold.

With B4, the MFI was 131000 MFI and the MFI ratio to WT (ΔWT) came to 5.9 fold.

Regarding B5, the MFI was 6200 MFI and the MFI ratio to WT (ΔWT) came to 0.3 fold.

In the case of B6, the MFI turned out to be 143000 MFI and the MFI ratio to WT (ΔWT) was determined as 6.4 fold.

With B7, the MFI came to 127000 MFI and the MFI ratio to WT (ΔWT) was found to be 5.7 fold.

As to B8, the MFI worked out at 13400 MFI and the MFI ratio to WT (ΔWT) was determined as 0.6 fold.

For the molecule B9, the MFI was 3280 MFI and the MFI ratio to WT (ΔWT) is 0.1 fold.

On to B10, for which the MFI came to 15200 MFI and the MFI ratio to WT (ΔWT) stood at 0.7 fold.

Turning to B11, the MFI stood at 6800 MFI and the MFI ratio to WT (ΔWT) is 0.3 fold.

As for B12, the MFI worked out at 54800 MFI and the MFI ratio to WT (ΔWT) was 2.5 fold.

For the molecule B13, the MFI was found to be 113000 MFI and the MFI ratio to WT (ΔWT) is 5 fold.

Take B14: the MFI is 69100 MFI and the MFI ratio to WT (ΔWT) came to 3.1 fold.

Turning to B15, the MFI was found to be 141000 MFI and the MFI ratio to WT (ΔWT) was found to be 6.3 fold.

With B16, the MFI came to 141000 MFI and the MFI ratio to WT (ΔWT) was 6.3 fold.

Regarding B17, the MFI came out at 112000 MFI and the MFI ratio to WT (ΔWT) stood at 5 fold.

Take B18: the MFI was determined as 23700 MFI and the MFI ratio to WT (ΔWT) amounted to 1.1 fold.

Another assay deals with CTLA-4 (Homo sapiens (Human)) (UniProt P16410). The assay is described as follows: flow cytometry, transfected cells.
Consider B3, for which the MFI came out at 305000 MFI and the MFI ratio to WT (ΔWT) turned out to be 0.92 fold.

With B4, the MFI is 477000 MFI and the MFI ratio to WT (ΔWT) stood at 1.44 fold.

Take B5: the MFI came out at 11500 MFI and the MFI ratio to WT (ΔWT) was 0.03 fold.

Take B6: the MFI is 378000 MFI and the MFI ratio to WT (ΔWT) was found to be 1.14 fold.

With B7, the MFI amounted to 358000 MFI and the MFI ratio to WT (ΔWT) was 1.08 fold.

As to B8, the MFI is 10600 MFI and the MFI ratio to WT (ΔWT) was found to be 0.03 fold.

In the case of B9, the MFI is 4270 MFI and the MFI ratio to WT (ΔWT) came to 0.01 fold.

With B10, the MFI came out at 69100 MFI and the MFI ratio to WT (ΔWT) amounted to 0.21 fold.

Consider B11, for which the MFI came out at 5050 MFI and the MFI ratio to WT (ΔWT) worked out at 0.02 fold.

B12: the MFI is 151000 MFI and the MFI ratio to WT (ΔWT) is 0.46 fold.

Take B13: the MFI stood at 350000 MFI and the MFI ratio to WT (ΔWT) was 1.06 fold.

Take B14: the MFI is 52500 MFI and the MFI ratio to WT (ΔWT) was determined as 0.16 fold.

As to B15, the MFI worked out at 353000 MFI and the MFI ratio to WT (ΔWT) was determined as 1.07 fold.

Consider B16, for which the MFI turned out to be 233000 MFI and the MFI ratio to WT (ΔWT) is 0.71 fold.

On to B17, for which the MFI worked out at 289000 MFI and the MFI ratio to WT (ΔWT) stood at 0.88 fold.

Consider B18, for which the MFI was found to be 14700 MFI and the MFI ratio to WT (ΔWT) came to 0.04 fold.

Substrate in a further assay: ICOS (Homo sapiens (Human)) (UniProt Q9Y6W8)
The assay is described as follows: flow cytometry, transfected cells.
On to B3, for which the MFI stood at 219000 MFI and the MFI ratio to WT (ΔWT) stood at 1.03 fold.

With B4, the MFI was 349000 MFI and the MFI ratio to WT (ΔWT) was found to be 1.65 fold.

In the case of B5, the MFI was 29200 MFI and the MFI ratio to WT (ΔWT) was determined as 0.14 fold.

For the molecule B6, the MFI was determined as 259000 MFI and the MFI ratio to WT (ΔWT) was 1.22 fold.

As to B7, the MFI is 270000 MFI and the MFI ratio to WT (ΔWT) turned out to be 1.27 fold.

Consider B8, for which the MFI worked out at 125000 MFI and the MFI ratio to WT (ΔWT) is 0.59 fold.

As to B9, the MFI came to 6100 MFI and the MFI ratio to WT (ΔWT) was 0.03 fold.

As for B10, the MFI amounted to 205000 MFI and the MFI ratio to WT (ΔWT) is 0.97 fold.

In the case of B11, the MFI turned out to be 143000 MFI and the MFI ratio to WT (ΔWT) is 0.68 fold.

As for B12, the MFI turned out to be 257000 MFI and the MFI ratio to WT (ΔWT) came out at 1.21 fold.

Take B13: the MFI was determined as 220000 MFI and the MFI ratio to WT (ΔWT) was found to be 1.04 fold.

As for B14, the MFI was 332000 MFI and the MFI ratio to WT (ΔWT) is 1.57 fold.

Regarding B15, the MFI is 250000 MFI and the MFI ratio to WT (ΔWT) amounted to 1.18 fold.

B16: the MFI is 199000 MFI and the MFI ratio to WT (ΔWT) was determined as 0.94 fold.

In the case of B17, the MFI was 231000 MFI and the MFI ratio to WT (ΔWT) turned out to be 1.09 fold.

As to B18, the MFI came to 260000 MFI and the MFI ratio to WT (ΔWT) stood at 1.23 fold.
